# Substrate: O=C(O)CCC(=O)C(=O)O
# Assay: RapidFire SPE-MS of Skp1 hydroxylation, Michaelis-Menten fit
# Assay type: biochemical, Dictyostelium discoideum
# Conditions: cosubstrate, full-length DdSkp1 100 μM, Fe(II) 50 μM, L-ascorbate 1 mM, HEPES pH 7.6, 37 °C, atmospheric O2
# Description: RapidFire SPE-MS of Skp1 hydroxylation, Michaelis-Menten fit on DdPhyA
protein,measurement,value
"DdPhyA (Dictyostelium discoideum) (protein, full-length aa 1-284, E. coli BL21 Gold (DE3), N-terminal His6-ZBasic tag cleaved by TEV, EDTA-treated to remove metal) MDISNLPPHIRQQILGLISKPQQNNDESSSSNNKNNLINNEKVSNVLIDLTSNLKIENFKIFNKESLNQLEKKGYLIIDNFLNDLNKINLIYDESYNQFKENKLIEAGMNKGTDKWKDKSIRGDYIQWIHRDSNSRIQDKDLSSTIRNINYLLDKLDLIKNEFDNVIPNFNSIKTQTQLAVYLNGGRYIKHRDSFYSSESLTISRRITMIYYVNKDWKKGDGGELRLYTNNPNNTNQKELKQTEEFIDIEPIADRLLIFLSPFLEHEVLQCNFEPRIAITTWIY",Km,36 ± 6 µM
